Laboratory results as given in PMC5063714 (Journal of medicinal chemistry, 2016).
Read-outs that look alike come from different tables or passages of the source. Square brackets hold non-standard residues; d marks the D form. Ends that are not written are not given here. * marks the point of attachment. Lys(Me3) = C[N+](C)(C)CCCC[C@H](N)C(=O)O; diethyl = not defined here; Bz = O=C(c1ccccc1)*

T1: chromodomain of CDYL2 (human) (UniProt Q8N8U2)
T1 sequence: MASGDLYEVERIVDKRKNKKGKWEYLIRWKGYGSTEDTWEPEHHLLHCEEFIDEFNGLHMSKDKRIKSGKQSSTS

T2: chromodomain of CBX7 (human, UniProt O95931 8-62)
T2 sequence (looked up): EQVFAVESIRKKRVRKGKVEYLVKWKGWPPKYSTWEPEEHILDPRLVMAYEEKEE

T3: chromodomain of CBX4 (human, UniProt O00257-1 8-65)
T3 sequence (looked up): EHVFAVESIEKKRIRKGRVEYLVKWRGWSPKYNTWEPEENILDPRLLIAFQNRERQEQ

T4: chromodomain of CDYL2 (human, UniProt Q8N8U2 1-75)
T4 sequence (looked up): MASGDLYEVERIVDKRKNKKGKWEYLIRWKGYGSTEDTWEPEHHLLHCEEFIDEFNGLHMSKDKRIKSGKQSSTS

T5: chromodomain of CBX8 (human, UniProt Q9HC52 8-61)
T5 sequence (looked up): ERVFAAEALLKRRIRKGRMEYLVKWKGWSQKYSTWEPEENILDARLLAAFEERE

B1: compound 4 (peptide)
peptide: Bz-AL[Lys(Me3)]S-OMe
SMILES: COC(=O)[C@H](CO)NC(=O)[C@H](CCCC[N+](C)(C)C)NC(=O)[C@H](CC(C)C)NC(=O)[C@H](C)NC(=O)c1ccccc1

Columns and labels:
Assay in all cases: AlphaScreen or HTRF
[1] = biological target: chromodomain of CBX8 (human) (UniProt Q9HC52)
[2] = biological target: chromodomain of CBX4 (human) (UniProt O00257)
[3] = biological target: chromodomain of CBX7 (human) (UniProt O95931)
[4] = biological target: chromodomain of CBX8 (human) (UniProt Q9HC52); remark: listed apart in the source
[5] = biological target: T1, chromodomain of CDYL2 (human)
chromodomain of CBX5 [6] = biological target: chromodomain of CBX5 (human)
chromodomain of CBX5 (human), sequence (Q9UN86 18-75): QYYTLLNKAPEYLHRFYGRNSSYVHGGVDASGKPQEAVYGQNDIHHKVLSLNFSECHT

chromodomain of CBX7 [7] = biological target: T2, chromodomain of CBX7
chromodomain of CBX4 [8] = biological target: T3, chromodomain of CBX4
chromodomain of CDYL2 [9] = biological target: T4, chromodomain of CDYL2
chromodomain of CBX7 [10] = biological target: T2, chromodomain of CBX7; remark: listed apart in the source
chromodomain of CBX4 [11] = biological target: T3, chromodomain of CBX4; remark: listed apart in the source
chromodomain of CBX8 = biological target: T5, chromodomain of CBX8
chromodomain of CDYL2 [12] = biological target: T4, chromodomain of CDYL2; remark: listed apart in the source
chromodomain of CBX5 [13] = biological target: chromodomain of CBX5 (human); remark: listed apart in the source

Molecule | IC50 [2] [µM] | IC50 [3] [µM] | IC50 [4] [µM] | IC50 [5] [µM] | IC50 (chromodomain of CBX5 [6]) [µM] | other results
compound 1 (UNC3866) (peptide) |  |  |  |  |  | IC50 [1]: 1.3 µM
B1 | > 60 | > 60 | > 60 | 16 | > 60 | 
Bz-FAL[Lys(Me3)]S-OMe [compound 5] |  |  |  |  | 49 | IC50 (chromodomain of CBX7 [7]): 2.6 µM; IC50 (chromodomain of CBX4 [8]): 6.9 µM; IC50 (chromodomain of CDYL2 [9]): 0.57 µM
{4‑tBu‑Bz}-FVLK(diethyl)S-OMe (reading uncertain) [compound 43] |  |  |  |  |  | IC50 (chromodomain of CBX7 [10]): 3.1 µM; IC50 (chromodomain of CBX4 [11]): 7.9 µM; IC50 (chromodomain of CBX8): 0.7 µM; IC50 (chromodomain of CDYL2 [12]): 0.75 µM; IC50 (chromodomain of CBX5 [13]): > 60 µM
Bz-FAL[Lys(Me3)] (also: C-terminal R2 = -H in place of -CO-Ser-OMe (no Ser)) [compound 7] | > 60 | > 60 | > 60 | 37 | > 60 | 
